Target: endogenous β-catenin of HEK293 cells (human (endogenous in HEK293)) (UniProt P35222)
Sequence of UniProt P35222 (P35222 whole entry): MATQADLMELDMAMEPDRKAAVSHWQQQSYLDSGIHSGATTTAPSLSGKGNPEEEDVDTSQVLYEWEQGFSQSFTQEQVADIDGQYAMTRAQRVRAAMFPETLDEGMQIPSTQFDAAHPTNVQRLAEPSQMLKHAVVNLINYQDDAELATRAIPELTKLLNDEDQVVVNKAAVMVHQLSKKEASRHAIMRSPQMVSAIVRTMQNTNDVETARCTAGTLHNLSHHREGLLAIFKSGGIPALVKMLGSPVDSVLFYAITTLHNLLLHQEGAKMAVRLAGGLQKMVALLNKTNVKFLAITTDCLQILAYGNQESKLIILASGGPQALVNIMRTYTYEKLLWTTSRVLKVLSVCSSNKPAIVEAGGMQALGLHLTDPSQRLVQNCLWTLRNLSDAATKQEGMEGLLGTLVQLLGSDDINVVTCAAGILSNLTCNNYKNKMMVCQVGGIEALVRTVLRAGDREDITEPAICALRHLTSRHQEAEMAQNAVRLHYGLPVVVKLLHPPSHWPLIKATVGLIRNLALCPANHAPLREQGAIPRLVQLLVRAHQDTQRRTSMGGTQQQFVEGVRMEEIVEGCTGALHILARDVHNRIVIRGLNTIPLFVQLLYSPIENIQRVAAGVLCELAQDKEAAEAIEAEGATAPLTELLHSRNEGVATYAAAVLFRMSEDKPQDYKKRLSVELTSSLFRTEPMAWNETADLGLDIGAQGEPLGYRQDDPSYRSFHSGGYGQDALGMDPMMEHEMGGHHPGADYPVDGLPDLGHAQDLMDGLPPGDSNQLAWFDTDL

WT-Nef expressed in HEK293 cells (natural protein)
inhibition of the TopFlash (TCF-luciferase) reporter, TopFlash/FopFlash ratio, HEK293 cells with Wnt-conditioned media, 50 ng Nef plasmid: 40%

Source: publication PMC3795062
